Reference: patent US20240117018A1

Legend:
Test in all cases: cell-based or functional assay
[1] = molecular target: HIV-1 Env of pseudovirus C2101.c01 (HIV-1)
[2] = molecular target: HIV-1 Env of pseudovirus CNE5 (HIV-1)
[3] = molecular target: HIV-1 Env of pseudovirus HIV-0013095-2.11 (HIV-1)
[4] = molecular target: HIV-1 Env of pseudovirus Ce704809221_1B3 (HIV-1)
[5] = molecular target: HIV-1 Env of pseudovirus 246F C1G (HIV-1)
[6] = molecular target: HIV-1 Env of pseudovirus SC05_8C11_2344 (HIV-1)
[7] = molecular target: HIV-1 Env of pseudovirus ZM249M.PL1 (HIV-1)
[8] = molecular target: HIV-1 Env of pseudovirus Ce2010_F5 (HIV-1)
[9] = molecular target: HIV-1 Env of pseudovirus Q769.d22 (HIV-1)
[10] = molecular target: HIV-1 Env of pseudovirus Ce1176_A3 (HIV-1)
[11] = molecular target: HIV-1 Env of pseudovirus CNE30 (HIV-1)
[12] = molecular target: HIV-1 Env of pseudovirus 6240_08_TA5_4622 (HIV-1)
[13] = molecular target: HIV-1 Env of pseudovirus Du172.17 (HIV-1)
[14] = molecular target: HIV-1 Env of pseudovirus CNE21 (HIV-1)
[15] = molecular target: HIV-1 Env of pseudovirus Du422.1 (HIV-1)
[16] = molecular target: HIV-1 Env of pseudovirus ZM197M.PB7 (HIV-1)
[17] = molecular target: HIV-1 Env of pseudovirus MS208.A1 (HIV-1)
[18] = molecular target: HIV-1 Env of pseudovirus CAAN5342.A2 (HIV-1)
[19] = molecular target: HIV-1 Env of pseudovirus Du156.12 (HIV-1)
[20] = molecular target: HIV-1 Env of pseudovirus HIV-16845-2.22 (HIV-1)
[21] = molecular target: HIV-1 Env of pseudovirus Ce0393_C3 (HIV-1)
[22] = molecular target: HIV-1 Env of pseudovirus PVO.4 (HIV-1)
[23] = molecular target: HIV-1 Env of pseudovirus QH0692.42 (HIV-1)
[24] = molecular target: HIV-1 Env of pseudovirus 1054_07_TC4_1499 (HIV-1)
[25] = molecular target: HIV-1 Env of pseudovirus 62357_14_D3_4589 (HIV-1)
[26] = molecular target: HIV-1 Env of pseudovirus 3365.v2.c2 (HIV-1)
[27] = molecular target: HIV-1 Env of pseudovirus ZM109F.PB4 (HIV-1)
[28] = molecular target: HIV-1 Env of pseudovirus HIV-16055-2.3 (HIV-1)
[29] = molecular target: HIV-1 Env of pseudovirus Q259.d2.17 (HIV-1)
[30] = molecular target: HIV-1 Env of pseudovirus CNE17 (HIV-1)
[31] = molecular target: HIV-1 Env of pseudovirus BF1266.431a (HIV-1)
[32] = molecular target: HIV-1 Env of pseudovirus 3415.v1.c1 (HIV-1)
[33] = molecular target: HIV-1 Env of pseudovirus 1006_11_C3_1601 (HIV-1)
[34] = molecular target: HIV-1 Env of pseudovirus CNE20 (HIV-1)
[35] = molecular target: HIV-1 Env of pseudovirus ZM135M.PL10a (HIV-1)
[36] = molecular target: HIV-1 Env of pseudovirus REJO4541.67 (HIV-1)
[37] = molecular target: HIV-1 Env of pseudovirus TRO.11 (HIV-1)
[38] = molecular target: HIV-1 Env of pseudovirus 0260.v5.c36 (HIV-1)

PG16 (antibody)
IC50 neutralization (TZM.bl) [1]: 0.012 µg/mL | IC80 neutralization (TZM.bl) [1]: 0.238 µg/mL | IC50 neutralization (TZM.bl) [2]: 0.008 µg/mL | IC80 neutralization (TZM.bl) [2]: 0.033 µg/mL

NIH 45-46 (antibody)
IC50 [3]: 0.01 µg/mL | IC80 [3]: 0.03 µg/mL | IC50 [4]: 0.15 µg/mL | IC80 [4]: 0.88 µg/mL | IC50 [5]: > 50 µg/mL | IC80 [5]: > 50 µg/mL | IC50 [6]: 0.14 µg/mL | IC80 [6]: 0.38 µg/mL | IC50 [7]: 0.02 µg/mL | IC80 [7]: 0.06 µg/mL | IC50 [8]: 0.13 µg/mL | IC80 [8]: 0.43 µg/mL | IC50 [9]: 0.01 µg/mL | IC80 [9]: 0.04 µg/mL | IC50 [10]: 1.29 µg/mL | IC80 [10]: 5.55 µg/mL | IC50 [11]: 0.34 µg/mL | IC80 [11]: 1.48 µg/mL | IC50 [12]: 0.44 µg/mL | IC80 [12]: 1.55 µg/mL | IC50 [13]: > 30 µg/mL | IC80 [13]: > 30 µg/mL | IC50 [14]: 7.53 µg/mL | IC80 [14]: > 50 µg/mL | IC50 [15]: > 50 µg/mL | IC80 [15]: > 50 µg/mL | IC50 [16]: 0.14 µg/mL | IC80 [16]: 0.64 µg/mL | IC50 [17]: 0.09 µg/mL | IC80 [17]: 0.6 µg/mL | IC50 [18]: 0.11 µg/mL | IC80 [18]: 0.33 µg/mL | IC50 [19]: 0.01 µg/mL | IC80 [19]: 0.05 µg/mL | IC50 [20]: 2.05 µg/mL | IC80 [20]: 12.1 µg/mL | IC50 [21]: 0.32 µg/mL | IC80 [21]: 1.07 µg/mL | IC50 [22]: 0.17 µg/mL | IC80 [22]: 0.47 µg/mL | IC50 [23]: 0.55 µg/mL | IC80 [23]: 1.56 µg/mL | IC50 [24]: 0.07 µg/mL | IC80 [24]: 0.61 µg/mL | IC50 [25]: 0.05 µg/mL | IC80 [25]: 0.22 µg/mL | IC50 [26]: 0.11 µg/mL | IC80 [26]: 0.11 µg/mL | IC50 [27]: 0.22 µg/mL | IC80 [27]: 0.22 µg/mL | IC50 [28]: 0.02 µg/mL | IC80 [28]: 0.06 µg/mL | IC50 [29]: 0.01 µg/mL | IC80 [29]: 0.06 µg/mL | IC50 [30]: 0.15 µg/mL | IC80 [30]: 0.55 µg/mL | IC50 [31]: 0.01 µg/mL | IC80 [31]: 0.03 µg/mL | IC50 [32]: 0.07 µg/mL | IC80 [32]: 0.07 µg/mL | IC50 [33]: 0.05 µg/mL | IC80 [33]: 0.31 µg/mL | IC50 [34]: 8.71 µg/mL | IC80 [34]: 47 µg/mL | IC50 [35]: 0.36 µg/mL | IC80 [35]: 3.11 µg/mL | IC50 [36]: 0.003 µg/mL | IC80 [36]: 0.01 µg/mL | IC50 [37]: 1.9 µg/mL | IC80 [37]: 9.56 µg/mL

N49P9.1 (antibody)
neutralization IC50 [26]: 0.055 µg/mL | neutralization IC80 [26]: 0.725 µg/mL | neutralization MPI [26]: 100 | neutralization IC50 [32]: 0.21 µg/mL | neutralization IC80 [32]: 1.37 µg/mL | neutralization MPI [32]: 100 | neutralization IC50 [1]: 0.085 µg/mL | neutralization IC80 [1]: 0.227 µg/mL | neutralization MPI [1]: 100 | neutralization IC50 [2]: 0.183 µg/mL | neutralization IC80 [2]: 0.641 µg/mL | neutralization MPI [2]: 100 | neutralization IC50 [38]: 0.519 µg/mL | neutralization IC80 [38]: 0.151 µg/mL | neutralization MPI [38]: 100

10E8 (antibody)
IC50 neutralization (TZM.bl) [1]: 1.92 µg/mL | IC80 neutralization (TZM.bl) [1]: 8.26 µg/mL | IC50 neutralization (TZM.bl) [2]: 1.41 µg/mL | IC80 neutralization (TZM.bl) [2]: 9.64 µg/mL

N49P19 (antibody)
neutralization IC50 [26]: 0.579 µg/mL | neutralization IC80 [26]: 2.09 µg/mL | neutralization MPI [26]: 99 | neutralization IC50 [32]: 0.462 µg/mL | neutralization IC80 [32]: 2.04 µg/mL | neutralization MPI [32]: 100 | neutralization IC50 [1]: 0.978 µg/mL | neutralization IC80 [1]: 4.19 µg/mL | neutralization MPI [1]: 100 | neutralization IC50 [2]: 0.748 µg/mL | neutralization IC80 [2]: 3.29 µg/mL | neutralization MPI [2]: 100 | neutralization IC50 [38]: 1.25 µg/mL | neutralization IC80 [38]: 8.52 µg/mL | neutralization MPI [38]: 99
